B1: GST-eIF5^CTD (domain or fragment)
chain: VNSELTQLDEYGEWILEQAGEDKENLPSDVELYKKAAELDVLNDPKIGCVLAQCLFDEDIVNEIAEHNAFFTKILVTPEYEKNFMGGIERFLGLEHKDLIPLLPKILVQLYNNDIISEEEIMRFGTKSSKKFVPKEVSKKVRRAAKPFITWLETAESDDDEEDDE
B2: GST-eIF5^W391F (natural protein)
chain: MSINICRDNHDPFYRYKMPPIQAKVEGRGNGIKTAVLNVADISHALNRPAPYIVKYFGFELGAQTSISVDKDRYLVNGVHEPAKLQDVLDGFINKFVLCGSCKNPETEIIITKDNDLVRDCKACGKRTPMDLRHKLSSFILKNPPDSVSGSKKKKKAATASANVRGGGLSISDIAQGKSQNAPSDGTGSSTPQHHDEDEDELSRQIKAAASTLEDIEVKDDEWAVDMSEEAIRARAKELEVNSELTQLDEYGEWILEQAGEDKENLPSDVELYKKAAELDVLNDPKIGCVLAQCLFDEDIVNEIAEHNAFFTKILVTPEYEKNFMGGIERFLGLEHKDLIPLLPKILVQLYNNDIISEEEIMRFGTKSSKKFVPKEVSKKVRRAAKPFITFLETAESDDDEEDDE
B3: GST-eIF5^LR+CTD (domain or fragment)
chain: KKKKAATASANVRGGGLSISDIAQGKSQNAPSDGTGSSTPQHHDEDEDELSRQIKAAASTLEDIEVKDDEWAVDMSEEAIRARAKELEVNSELTQLDEYGEWILEQAGEDKENLPSDVELYKKAAELDVLNDPKIGCVLAQCLFDEDIVNEIAEHNAFFTKILVTPEYEKNFMGGIERFLGLEHKDLIPLLPKILVQLYNNDIISEEEIMRFGTKSSKKFVPKEVSKKVRRAAKPFITWLETAESDDDEEDDE

target: Yeast eIF2αβγ complex, purified (his-tagged eIF2γ) (yeast, UniProt P20459;P09064;P32481); experiment: pull-down
Sequence (P20459 whole entry, chain 1 of 3): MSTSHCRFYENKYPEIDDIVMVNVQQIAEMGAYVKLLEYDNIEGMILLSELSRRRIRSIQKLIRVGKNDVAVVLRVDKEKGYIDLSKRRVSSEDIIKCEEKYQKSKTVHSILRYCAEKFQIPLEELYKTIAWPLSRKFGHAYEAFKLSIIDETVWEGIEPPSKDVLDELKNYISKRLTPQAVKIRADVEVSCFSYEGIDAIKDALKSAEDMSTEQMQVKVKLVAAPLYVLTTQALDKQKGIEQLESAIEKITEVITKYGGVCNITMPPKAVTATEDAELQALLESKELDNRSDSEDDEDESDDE
Sequence (P09064 whole entry, chain 2 of 3): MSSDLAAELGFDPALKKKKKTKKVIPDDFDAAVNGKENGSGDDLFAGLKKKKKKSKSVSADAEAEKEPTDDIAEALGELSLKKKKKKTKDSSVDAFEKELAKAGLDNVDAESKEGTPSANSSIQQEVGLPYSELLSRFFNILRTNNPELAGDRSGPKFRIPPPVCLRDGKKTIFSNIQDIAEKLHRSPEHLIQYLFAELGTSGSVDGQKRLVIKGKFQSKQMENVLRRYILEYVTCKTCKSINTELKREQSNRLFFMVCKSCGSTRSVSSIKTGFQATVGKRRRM
Sequence (P32481 whole entry, chain 3 of 3): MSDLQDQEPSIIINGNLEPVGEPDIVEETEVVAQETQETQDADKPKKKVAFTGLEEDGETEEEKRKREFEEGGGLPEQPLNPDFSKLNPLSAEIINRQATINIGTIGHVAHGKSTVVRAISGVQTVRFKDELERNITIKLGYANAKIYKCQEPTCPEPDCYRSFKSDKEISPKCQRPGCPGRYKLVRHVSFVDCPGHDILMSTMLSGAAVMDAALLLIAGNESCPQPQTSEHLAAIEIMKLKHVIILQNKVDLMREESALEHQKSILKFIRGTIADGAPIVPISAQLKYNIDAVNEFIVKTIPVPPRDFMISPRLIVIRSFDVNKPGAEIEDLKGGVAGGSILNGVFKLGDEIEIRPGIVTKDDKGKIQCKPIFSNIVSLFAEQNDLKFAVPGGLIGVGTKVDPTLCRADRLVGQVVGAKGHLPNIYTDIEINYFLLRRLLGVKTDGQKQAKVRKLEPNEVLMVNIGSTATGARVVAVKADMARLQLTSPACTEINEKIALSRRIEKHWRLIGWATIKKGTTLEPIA

binding result | Binder
binds | B1
binds | B2
binds | B3

Source: publication PMC2875157 (Nature, 2010)
